# Data: patent publication US20130136748A1 (Ablynx, published 2013)
# Values joined by “and” are separate entries in the source; they are usually repeats but may differ in a detail not shown here. Equal entries are not always repeated.
# T1: Chimeric chicken Her3-human domain 2 (AA207-328 human) (chicken/human chimera)
# T1 construct: Transmembrane and extracellular regions, on HEK293 cells
# T1 chain: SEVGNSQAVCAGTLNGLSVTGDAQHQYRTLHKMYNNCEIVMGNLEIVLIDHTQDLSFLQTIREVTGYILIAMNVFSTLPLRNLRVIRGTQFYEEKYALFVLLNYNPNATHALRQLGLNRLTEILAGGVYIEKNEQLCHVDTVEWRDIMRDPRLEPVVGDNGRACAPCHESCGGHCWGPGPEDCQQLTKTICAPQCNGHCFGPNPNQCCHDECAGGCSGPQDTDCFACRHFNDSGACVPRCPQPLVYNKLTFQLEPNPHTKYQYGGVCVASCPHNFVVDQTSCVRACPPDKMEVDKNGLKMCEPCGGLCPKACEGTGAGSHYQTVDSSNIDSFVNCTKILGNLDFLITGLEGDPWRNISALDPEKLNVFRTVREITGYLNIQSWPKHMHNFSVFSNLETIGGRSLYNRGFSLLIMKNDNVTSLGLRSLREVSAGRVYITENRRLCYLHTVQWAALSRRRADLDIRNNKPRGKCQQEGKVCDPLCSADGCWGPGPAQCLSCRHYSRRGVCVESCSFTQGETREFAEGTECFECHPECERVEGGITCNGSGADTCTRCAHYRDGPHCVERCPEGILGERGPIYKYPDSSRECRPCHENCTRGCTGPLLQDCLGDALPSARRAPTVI
# T2: Chimeric chicken Her3-human domain 1 (AA1-206 human, AA207-642 chicken) (chicken/human chimera)
# T2 construct: Transmembrane and extracellular regions, on HEK293 cells
# T2 chain: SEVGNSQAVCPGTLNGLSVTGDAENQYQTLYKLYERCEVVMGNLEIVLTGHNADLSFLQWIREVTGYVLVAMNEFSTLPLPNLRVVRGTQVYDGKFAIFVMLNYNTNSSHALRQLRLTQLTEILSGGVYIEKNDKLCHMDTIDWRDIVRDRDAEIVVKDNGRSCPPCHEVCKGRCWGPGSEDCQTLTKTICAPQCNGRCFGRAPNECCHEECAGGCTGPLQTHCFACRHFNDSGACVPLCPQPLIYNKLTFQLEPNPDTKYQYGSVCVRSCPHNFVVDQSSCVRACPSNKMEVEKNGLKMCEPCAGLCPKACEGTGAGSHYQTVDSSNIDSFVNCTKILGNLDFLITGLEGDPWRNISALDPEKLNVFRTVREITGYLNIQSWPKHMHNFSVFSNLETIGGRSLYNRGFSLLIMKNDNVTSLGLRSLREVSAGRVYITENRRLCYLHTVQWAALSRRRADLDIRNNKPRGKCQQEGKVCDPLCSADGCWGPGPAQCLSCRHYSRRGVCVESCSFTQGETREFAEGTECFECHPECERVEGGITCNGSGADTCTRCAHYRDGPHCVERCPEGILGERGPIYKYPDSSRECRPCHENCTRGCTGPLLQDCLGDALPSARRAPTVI
# Key:
# [1] = biological target: T3, human HER3-Fc (R&D Systems, 348-RB) (human, UniProt P21860 20-643); assay: 18G11 competition alphascreen
# T3 construct: Bought; also called hHER3-Fc; Fc-HER3; Fc part of the bought chimera not given, not described
# [2] = biological target: T4, hHER3 ECD (human HER3 extracellular domain) (human, UniProt P21860 20-643); assay: off rate screening on recombinant HER3-ECD
# T4 construct: also called recombinant HER3-ECD
# [3] = biological target: T4, hHER3 ECD (human HER3 extracellular …); assay: SPR off rate
# hHER3 full length [4] = biological target: T5, hHER3 full length (human, UniProt P21860 20-1342); assay: cell-based or functional assay
# [5] = biological target: T1, Chimeric chicken Her3-human domain 2 …; assay: FACS, HEK293 with chimeric HER3
# [6] = biological target: T3, human HER3-Fc (R&D Systems, 348-RB); assay: alphascreen, competitor biotinylated 18G11
# [7] = biological target: T4, hHER3 ECD (human HER3 extracellular …); assay: SPR off rate on HER3-ECD, periplasmic extract
# [8] = biological target: T3, human HER3-Fc (R&D Systems, 348-RB); assay: SPR, HER3-Fc captured; heterogenous curve, main interaction (89%)
# [9] = biological target: T2, Chimeric chicken Her3-human domain 1 …; assay: FACS, HEK293 with chimeric HER3
# [10] = biological target: T3, human HER3-Fc (R&D Systems, 348-RB); assay: HRG competition alphascreen
# [11] = biological target: T3, human HER3-Fc (R&D Systems, 348-RB); assay: HRG competition alphascreen; remark: listed apart in the source
# [12] = biological target: T3, human HER3-Fc (R&D Systems, 348-RB); assay: HRG competition alphascreen; remark: listed apart in the source
# hHER3 full length [13] = biological target: T5, hHER3 full length; assay: FACS competition with HRG1-β1-EGF, CHO-HER3
# hHER3 full length [14] = biological target: T5, hHER3 full length; assay: cell-based or functional assay; remark: listed apart in the source
IC50 [1] [nM],koff [2] [s⁻¹],koff [3],"IC50 pHER3 blocking, HRG stimulated MCF7 (hHER3 full length [4]) [M]",binding result [5],IC50 [6] [nM],koff [7],Kd [8] [nM],kon [8] [M⁻¹ s⁻¹],binding result [9],% inhibition [10] [%],IC50 [10] [nM],IC50 [11] [nM],IC50 [12],IC50 (hHER3 full length [13]) [nM],"IC50 pHER3, HRG1-β1 stimulated MCF7 (hHER3 full length [14]) [M]",Binder
4.4,0.00061,0.00043 s⁻¹ and 0.00047 s⁻¹,2.91e-08,binds,3.2,0.00062 s⁻¹ and 0.00077 s⁻¹,–,–,–,–,–,–,–,–,–,"18G11 (VHH, c-myc, His6-tagged form as expressed; also called HER3MS18G11; HER3MS018G11) VHH: EVQLVESGGGLVQPGGSLRLSCAASGTLFKINAMGWYRQAPGKRRELVALITSSDTTDYAESVEGRFTISRDNTWNAVYLQMNSLKPEDTAVYYCHSDHYSMGVPEKRVIMYGQGTQVTVSS"
–,–,–,–,binds,–,–,48,8400,binds,–,–,–,–,–,–,"17C08 (VHH, also called 17C8) VHH: EVQLVESGGGLMQAGDSLRLSCAASGRAFSSYALGWFRRAPGKERECVAATDRLGDNTYFPDSVKGRFTISRDNAKNTLYLQMNNLKPEDTAVYYCAAGAVRYGVSTSPMNYNYWGQGTQVTVSS"
–,–,–,–,–,–,–,–,–,binds,86.7,0.264,0.18,0.27 nM and 0.69 nM,4.26,6.25e-09,"04C07 (VHH, also called HER3MS04C07; HER3MS004C07) VHH: EVQLVESGGGLVQAGGSLRLSCAASGFTFSSYPMSWVRQAPGKGPAWVSTVSPGGITTSYADSVKGRFTISRDNAKNTLYLQMNSLKPEDTAVYYCLRDLNNRGQGTQVTVSS"
